Measured values from PMC6555819, “Comprehensive study of nuclear receptor DNA binding provides a revised framework for understanding receptor specificity”.

B1: NRC3_random_hg19_12_o1 (dsDNA)
DNA 1: GCTTCCAGAATCAGACAATCACTGGGCTTGAACCAGGCGATTGACAGCGTAGAATGAAGG
DNA 2: CCTTCATTCTACGCTGTCAATCGCCTGGTTCAAGCCCAGTGATTGTCTGATTCTGGAAGC
B2: NRC3_wobSeed21_DR0_T11G_o1 (dsDNA)
DNA 1: GCCGTCAAAGGTCAAGGTAACGTAACAGAAAGCAGCGCGATTGACAGCGTAGAATGAAGG
DNA 2: CCTTCATTCTACGCTGTCAATCGCGCTGCTTTCTGTTACGTTACCTTGACCTTTGACGGC
B3: NRC3_wobSeed73_DR3_C7A_o1 (dsDNA)
DNA 1: GCCAAAATAGGTCACAGAGGTCAAAGTCCGTGCGTAGCGATTGACAGCGTAGAATGAAGG
DNA 2: CCTTCATTCTACGCTGTCAATCGCTACGCACGGACTTTGACCTCTGTGACCTATTTTGGC
B4: NRC3_random_hg19_29_o1 (dsDNA)
DNA 1: GCGGTTGAATGCCCAGATAGTACACACACCAAGCTTGCGATTGACAGCGTAGAATGAAGG
DNA 2: CCTTCATTCTACGCTGTCAATCGCAAGCTTGGTGTGTGTACTATCTGGGCATTCAACCGC
B5: NRC3_wobSeed26_DR1_A14T_o1 (dsDNA)
DNA 1: GCTCTAGTTGGTCTAAGGTCACACACTCGAAATGCGGCGATTGACAGCGTAGAATGAAGG
DNA 2: CCTTCATTCTACGCTGTCAATCGCCGCATTTCGAGTGTGTGACCTTAGACCAACTAGAGC
B6: NRC3_wobSeed122_DR5_C24G_o1 (dsDNA)
DNA 1: GCGCTAGTTGGTCAGTAAAAGGTGACACACCGGTCGGCGATTGACAGCGTAGAATGAAGG
DNA 2: CCTTCATTCTACGCTGTCAATCGCCGACCGGTGTGTCACCTTTTACTGACCAACTAGCGC
B7: NRC3_random_hg19_50_o1 (dsDNA)
DNA 1: GCTGAAGAGTTTCTAACTCTTTGTTCTTGAATCAAAGCGATTGACAGCGTAGAATGAAGG
DNA 2: CCTTCATTCTACGCTGTCAATCGCTTTGATTCAAGAACAAAGAGTTAGAAACTCTTCAGC
B8: NRC3_random_hg19_124_o1 (dsDNA)
DNA 1: GCTCAGTTCCTCTGCAGCCAACCAGTCTTGGTGCCTGCGATTGACAGCGTAGAATGAAGG
DNA 2: CCTTCATTCTACGCTGTCAATCGCAGGCACCAAGACTGGTTGGCTGCAGAGGAACTGAGC
B9: NRC3_random_hg19_424_o1 (dsDNA)
DNA 1: GCGCCTTCTCTACAGGGCATACAGACTGACATTGAGGCGATTGACAGCGTAGAATGAAGG
DNA 2: CCTTCATTCTACGCTGTCAATCGCCTCAATGTCAGTCTGTATGCCCTGTAGAGAAGGCGC
B10: NRC3_random_hg19_143_o1 (dsDNA)
DNA 1: GCCAAGAATCAGACTCTTAAGTAGATGCCTGTAGCTGCGATTGACAGCGTAGAATGAAGG
DNA 2: CCTTCATTCTACGCTGTCAATCGCAGCTACAGGCATCTACTTAAGAGTCTGATTCTTGGC
B11: NRC3_random_hg19_448_o1 (dsDNA)
DNA 1: GCAGAAGAAGACCAAAGTATTCCCTCACTGCCTATGGCGATTGACAGCGTAGAATGAAGG
DNA 2: CCTTCATTCTACGCTGTCAATCGCCATAGGCAGTGAGGGAATACTTTGGTCTTCTTCTGC
B12: NRC3_wobSeed97_DR4_G16T_o1 (dsDNA)
DNA 1: GCCAAACTAGGTCACTAAAGGTCAAAGTCGAATGACGCGATTGACAGCGTAGAATGAAGG
DNA 2: CCTTCATTCTACGCTGTCAATCGCGTCATTCGACTTTGACCTTTAGTGACCTAGTTTGGC
B13: NRC3_wobSeed120_DR4_G16T_o1 (dsDNA)
DNA 1: GCCCGAGTAGGTTACTAGGGGGCATTCAGTGCGAATGCGATTGACAGCGTAGAATGAAGG
DNA 2: CCTTCATTCTACGCTGTCAATCGCATTCGCACTGAATGCCCCCTAGTAACCTACTCGGGC
B14: NRC3_wobSeed120_DR4_T8G_o1 (dsDNA)
DNA 1: GCCCGAGGAGGTTACGAGGGGGCATTCAGTGCGAATGCGATTGACAGCGTAGAATGAAGG
DNA 2: CCTTCATTCTACGCTGTCAATCGCATTCGCACTGAATGCCCCCTCGTAACCTCCTCGGGC
B15: NRC3_wobSeed109_DR4_A16T_o1 (dsDNA)
DNA 1: GCCGTCCAAGGTCATTGGAGGTCAGTGAAGACAGATGCGATTGACAGCGTAGAATGAAGG
DNA 2: CCTTCATTCTACGCTGTCAATCGCATCTGTCTTCACTGACCTCCAATGACCTTGGACGGC
B16: NRC3_wobSeed116_DR4_A21T_o1 (dsDNA)
DNA 1: GCAGAATGAGGTTACCAAAGTTCAGGGAAACGCTTGGCGATTGACAGCGTAGAATGAAGG
DNA 2: CCTTCATTCTACGCTGTCAATCGCCAAGCGTTTCCCTGAACTTTGGTAACCTCATTCTGC
B17: NRC3_wobSeed101_DR4_C13T_o1 (dsDNA)
DNA 1: GCCCTTACGGGTTACTCCAGGTTATAGCATCGGAGTGCGATTGACAGCGTAGAATGAAGG
DNA 2: CCTTCATTCTACGCTGTCAATCGCACTCCGATGCTATAACCTGGAGTAACCCGTAAGGGC
B18: NRC3_wobSeed113_DR4_T12A_o1 (dsDNA)
DNA 1: GCATATGTAGGATAGCTGGGGTCATTCAGACTAGGCGCGATTGACAGCGTAGAATGAAGG
DNA 2: CCTTCATTCTACGCTGTCAATCGCGCCTAGTCTGAATGACCCCAGCTATCCTACATATGC
B19: NRC3_wobSeed98_DR4_A28C_o1 (dsDNA)
DNA 1: GCACTAGTTGGTCAGCTGAGGTCACACCCAATTCGGGCGATTGACAGCGTAGAATGAAGG
DNA 2: CCTTCATTCTACGCTGTCAATCGCCCGAATTGGGTGTGACCTCAGCTGACCAACTAGTGC
B20: NRC3_random_hg19_378_o1 (dsDNA)
DNA 1: GCATCATCTTGCGTATGTTGATTGATGTCTCATGTGGCGATTGACAGCGTAGAATGAAGG
DNA 2: CCTTCATTCTACGCTGTCAATCGCCACATGAGACATCAATCAACATACGCAAGATGATGC
B21: NRC3_random_hg19_334_o1 (dsDNA)
DNA 1: GCTGCTGACTTGCTGGTTAGAGGGAACACATTCCCAGCGATTGACAGCGTAGAATGAAGG
DNA 2: CCTTCATTCTACGCTGTCAATCGCTGGGAATGTGTTCCCTCTAACCAGCAAGTCAGCAGC
B22: NRC3_random_hg19_484_o1 (dsDNA)
DNA 1: GCCAGCAAACTAGGAATCAAGAAACTGAGTTCTGGCGCGATTGACAGCGTAGAATGAAGG
DNA 2: CCTTCATTCTACGCTGTCAATCGCGCCAGAACTCAGTTTCTTGATTCCTAGTTTGCTGGC

Experiments:
RXRa = RXRa (Homo sapiens, UniProt P19793); test: no ligand; PBM; 180 nM; PBS pH 7.4, 2% milk, 0.02% Triton X-100, 1 mM DTT, BSA, 0.4 mg/ml salmon testes DNA; settings: tags: His cleaved; chain copies: 2; label: surface-attached array probe
RXRa, sequence (P19793 whole entry): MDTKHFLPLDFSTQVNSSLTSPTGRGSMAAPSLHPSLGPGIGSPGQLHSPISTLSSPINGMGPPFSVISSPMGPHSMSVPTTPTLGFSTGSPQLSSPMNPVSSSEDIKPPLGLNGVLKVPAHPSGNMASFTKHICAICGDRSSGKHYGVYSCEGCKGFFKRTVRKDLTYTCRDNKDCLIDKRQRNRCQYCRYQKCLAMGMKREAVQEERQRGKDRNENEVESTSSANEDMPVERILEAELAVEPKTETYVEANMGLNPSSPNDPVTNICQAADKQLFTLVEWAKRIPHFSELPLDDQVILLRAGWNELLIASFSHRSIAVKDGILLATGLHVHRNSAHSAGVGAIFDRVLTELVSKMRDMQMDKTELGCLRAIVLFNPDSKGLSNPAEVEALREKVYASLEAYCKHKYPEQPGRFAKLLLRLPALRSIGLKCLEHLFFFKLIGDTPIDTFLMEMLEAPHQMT
RARb:RXRa = RARb:RXRa (Homo sapiens, UniProt P10826;P19793 full;full); test: no ligand; PBM; 270 nM : 90 nM RXRa; PBS pH 7.4, 2% milk, 0.02% Triton X-100, 1 mM DTT, BSA, 0.4 mg/ml salmon testes DNA; settings: tags: His kept;His cleaved; copies: 1;1; label: surface-attached array probe
RARb:RXRa, sequence (P10826 whole entry, chain 1 of 2): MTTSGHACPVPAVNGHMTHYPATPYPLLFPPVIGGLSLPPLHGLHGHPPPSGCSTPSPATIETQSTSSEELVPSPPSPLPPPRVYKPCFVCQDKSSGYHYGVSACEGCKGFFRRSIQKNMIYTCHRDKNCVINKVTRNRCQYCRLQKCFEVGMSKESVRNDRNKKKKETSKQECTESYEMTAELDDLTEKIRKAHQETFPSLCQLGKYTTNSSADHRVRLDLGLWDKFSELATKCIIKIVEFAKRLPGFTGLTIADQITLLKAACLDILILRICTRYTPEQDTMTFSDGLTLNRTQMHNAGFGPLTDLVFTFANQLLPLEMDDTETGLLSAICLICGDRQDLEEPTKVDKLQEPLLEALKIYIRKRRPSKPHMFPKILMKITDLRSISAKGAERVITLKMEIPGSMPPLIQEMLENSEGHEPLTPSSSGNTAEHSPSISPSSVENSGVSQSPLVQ
RARb:RXRa, sequence (P19793 whole entry, chain 2 of 2): as the sequence (P19793 whole entry) above
Outline: (§1)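 Each nuclear receptor dimer, without ligand, was incubated for 1 h on custom Agilent 4×180K protein-binding microarrays. Binding was detected with antibodies against each partner (one per run), and scanned fluorescence was regression-normalized. The binding z-scores are referenced to random human genomic background probes.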

LXRa:RXRa = LXRa:RXRa (Homo sapiens, UniProt Q13133;P19793 full;full); test: as above; settings: tags: His kept;His cleaved; copies: 1;1; label: surface-attached array probe
LXRa:RXRa, sequence (Q13133 whole entry, chain 1 of 2): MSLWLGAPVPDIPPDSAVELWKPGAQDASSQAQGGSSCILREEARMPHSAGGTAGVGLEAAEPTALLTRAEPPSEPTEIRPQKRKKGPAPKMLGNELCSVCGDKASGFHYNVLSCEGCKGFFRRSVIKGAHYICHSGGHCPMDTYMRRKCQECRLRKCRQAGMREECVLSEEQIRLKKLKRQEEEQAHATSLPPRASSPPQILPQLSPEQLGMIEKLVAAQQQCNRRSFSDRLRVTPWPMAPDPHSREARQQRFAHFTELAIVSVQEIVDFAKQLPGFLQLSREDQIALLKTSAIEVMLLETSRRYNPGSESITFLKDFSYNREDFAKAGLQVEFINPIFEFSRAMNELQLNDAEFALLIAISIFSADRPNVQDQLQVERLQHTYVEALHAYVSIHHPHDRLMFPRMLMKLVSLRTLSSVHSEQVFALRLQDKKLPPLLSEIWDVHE
LXRa:RXRa, sequence (P19793 whole entry, chain 2 of 2): as the sequence (P19793 whole entry) above
Outline: as §1

FXR:RXRa = FXR:RXRa (Homo sapiens, UniProt Q96RI1;P19793 full;full); test: as above; settings: tags: His kept;His cleaved; copies: 1;1; label: surface-attached array probe
FXR:RXRa, sequence (Q96RI1 whole entry, chain 1 of 2): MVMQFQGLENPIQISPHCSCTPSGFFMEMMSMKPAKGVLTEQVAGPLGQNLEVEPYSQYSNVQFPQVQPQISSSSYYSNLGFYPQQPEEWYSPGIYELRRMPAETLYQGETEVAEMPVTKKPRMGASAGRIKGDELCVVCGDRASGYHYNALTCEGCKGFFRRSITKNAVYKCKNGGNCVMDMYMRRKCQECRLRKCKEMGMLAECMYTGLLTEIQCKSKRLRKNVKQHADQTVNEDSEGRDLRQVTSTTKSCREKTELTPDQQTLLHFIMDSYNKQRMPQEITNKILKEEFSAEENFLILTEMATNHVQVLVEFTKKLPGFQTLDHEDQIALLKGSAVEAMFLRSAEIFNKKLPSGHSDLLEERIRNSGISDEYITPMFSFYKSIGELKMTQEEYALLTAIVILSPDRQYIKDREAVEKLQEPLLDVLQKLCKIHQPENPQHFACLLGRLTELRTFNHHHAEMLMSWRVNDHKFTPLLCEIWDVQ
FXR:RXRa, sequence (P19793 whole entry, chain 2 of 2): as the sequence (P19793 whole entry) above
Outline: as §1

PPARa:RXRa = PPARa:RXRa (Homo sapiens, UniProt Q07869;P19793 full;full); test: as above; settings: tags: GST kept;His cleaved; copies: 1;1; label: surface-attached array probe
PPARa:RXRa, sequence (Q07869 whole entry, chain 1 of 2): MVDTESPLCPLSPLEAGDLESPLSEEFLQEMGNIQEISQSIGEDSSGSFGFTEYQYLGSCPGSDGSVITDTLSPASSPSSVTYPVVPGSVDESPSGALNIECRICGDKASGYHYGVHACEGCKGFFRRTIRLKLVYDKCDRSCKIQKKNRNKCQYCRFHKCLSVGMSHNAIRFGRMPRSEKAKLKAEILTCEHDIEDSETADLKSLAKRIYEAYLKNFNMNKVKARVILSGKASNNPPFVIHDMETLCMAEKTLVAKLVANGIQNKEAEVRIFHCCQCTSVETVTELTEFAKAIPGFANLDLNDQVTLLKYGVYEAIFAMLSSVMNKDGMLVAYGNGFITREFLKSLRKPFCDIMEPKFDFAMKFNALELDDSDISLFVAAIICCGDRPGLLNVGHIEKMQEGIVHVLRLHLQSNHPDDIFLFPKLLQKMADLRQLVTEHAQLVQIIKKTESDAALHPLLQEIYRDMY
PPARa:RXRa, sequence (P19793 whole entry, chain 2 of 2): as the sequence (P19793 whole entry) above
Outline: as §1

LXRb:RXRa = LXRb:RXRa (Homo sapiens, UniProt P55055;P19793 full;full); test: as above; settings: tags: His kept;His cleaved; copies: 1;1; label: surface-attached array probe
LXRb:RXRa, sequence (P55055 whole entry, chain 1 of 2): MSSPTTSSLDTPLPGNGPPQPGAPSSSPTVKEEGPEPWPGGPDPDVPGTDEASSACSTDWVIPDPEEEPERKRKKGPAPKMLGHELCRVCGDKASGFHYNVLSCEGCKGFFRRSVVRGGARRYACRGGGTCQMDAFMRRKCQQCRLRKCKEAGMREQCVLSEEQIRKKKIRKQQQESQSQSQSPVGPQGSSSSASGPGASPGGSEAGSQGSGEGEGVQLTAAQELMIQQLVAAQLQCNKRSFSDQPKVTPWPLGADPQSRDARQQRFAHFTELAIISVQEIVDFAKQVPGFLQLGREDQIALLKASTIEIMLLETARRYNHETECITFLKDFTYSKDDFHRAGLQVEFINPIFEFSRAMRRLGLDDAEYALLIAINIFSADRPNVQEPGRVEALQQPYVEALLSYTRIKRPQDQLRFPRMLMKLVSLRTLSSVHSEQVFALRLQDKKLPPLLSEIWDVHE
LXRb:RXRa, sequence (P19793 whole entry, chain 2 of 2): as the sequence (P19793 whole entry) above
Outline: as §1

RARg:RXRa = RARg:RXRa (Homo sapiens, UniProt P13631;P19793 full;full); test: as above; settings: tags: His kept;His cleaved; copies: 1;1; label: surface-attached array probe
RARg:RXRa, sequence (P13631 whole entry, chain 1 of 2): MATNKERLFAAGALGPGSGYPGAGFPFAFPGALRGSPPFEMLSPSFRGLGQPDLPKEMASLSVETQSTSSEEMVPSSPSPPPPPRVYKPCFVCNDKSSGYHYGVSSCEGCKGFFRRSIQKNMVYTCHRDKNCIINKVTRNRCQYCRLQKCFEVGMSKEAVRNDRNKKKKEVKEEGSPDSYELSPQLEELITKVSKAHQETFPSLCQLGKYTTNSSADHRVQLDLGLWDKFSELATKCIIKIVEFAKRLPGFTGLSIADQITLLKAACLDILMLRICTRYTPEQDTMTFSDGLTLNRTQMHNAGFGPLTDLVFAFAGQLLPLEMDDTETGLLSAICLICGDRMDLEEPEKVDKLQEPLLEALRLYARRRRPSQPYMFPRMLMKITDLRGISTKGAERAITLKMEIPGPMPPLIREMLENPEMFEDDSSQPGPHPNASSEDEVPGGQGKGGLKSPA
RARg:RXRa, sequence (P19793 whole entry, chain 2 of 2): as the sequence (P19793 whole entry) above
Outline: as §1

VDR:RXRa = VDR:RXRa (Homo sapiens, UniProt P11473;P19793 full;full); test: as above; settings: tags: His kept;His cleaved; copies: 1;1; label: surface-attached array probe
VDR:RXRa, sequence (P11473 whole entry, chain 1 of 2): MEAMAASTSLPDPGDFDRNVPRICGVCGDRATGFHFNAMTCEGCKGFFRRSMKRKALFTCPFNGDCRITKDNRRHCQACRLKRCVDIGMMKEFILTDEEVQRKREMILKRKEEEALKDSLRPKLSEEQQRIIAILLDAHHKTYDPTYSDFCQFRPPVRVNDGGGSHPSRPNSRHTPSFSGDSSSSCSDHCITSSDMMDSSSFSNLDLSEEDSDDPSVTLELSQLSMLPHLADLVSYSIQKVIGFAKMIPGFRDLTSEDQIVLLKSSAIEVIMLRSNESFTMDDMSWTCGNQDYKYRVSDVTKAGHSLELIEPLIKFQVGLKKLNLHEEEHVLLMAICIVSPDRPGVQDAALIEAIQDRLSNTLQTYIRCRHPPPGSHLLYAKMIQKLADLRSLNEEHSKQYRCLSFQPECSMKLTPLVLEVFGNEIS
VDR:RXRa, sequence (P19793 whole entry, chain 2 of 2): as the sequence (P19793 whole entry) above
Outline: as §1

Binder	binding signal (RXRa)	binding signal (RARb:RXRa)	binding signal (LXRa:RXRa)	binding signal (FXR:RXRa)	binding signal (PPARa:RXRa)	binding signal (LXRb:RXRa)	binding signal (RARg:RXRa)	binding signal (VDR:RXRa)
B1	-0.01 PBM z-score against 500 random probes	-0.1 PBM z-score against 500 random probes	-0.13 PBM z-score against 500 random probes	0.11 PBM z-score against 500 random probes	–	–	–	–
B2	8.42 PBM z-score against 500 random probes	6.57 PBM z-score against 500 random probes	6.81 PBM z-score against 500 random probes	9.02 PBM z-score against 500 random probes	6.99 PBM z-score against 500 random probes	6.12 PBM z-score against 500 random probes	7.8 PBM z-score against 500 random probes	–
B3	–	5.84 PBM z-score against 500 random probes	7.23 PBM z-score against 500 random probes	8.03 PBM z-score against 500 random probes	6.98 PBM z-score against 500 random probes	7.08 PBM z-score against 500 random probes	7.78 PBM z-score against 500 random probes	–
B4	–	-0.14 PBM z-score against 500 random probes	-0.08 PBM z-score against 500 random probes	–	–	0.12 PBM z-score against 500 random probes	–	–
B5	–	–	4.12 PBM z-score against 500 random probes	–	–	–	–	4.12 PBM z-score against 500 random probes
B6	–	–	0.28 PBM z-score against 500 random probes	–	–	–	–	0.14 PBM z-score against 500 random probes
B7	–	–	-0.55 PBM z-score against 500 random probes	–	–	–	–	-0.07 PBM z-score against 500 random probes
B8	–	–	0.33 PBM z-score against 500 random probes	–	–	–	–	-0.13 PBM z-score against 500 random probes
B9	–	–	0.42 PBM z-score against 500 random probes	–	–	–	–	-0.21 PBM z-score against 500 random probes
B10	–	–	-0.64 PBM z-score against 500 random probes	–	–	–	-0.43 PBM z-score against 500 random probes	-0.44 PBM z-score against 500 random probes
B11	–	–	-0.67 PBM z-score against 500 random probes	–	-0.65 PBM z-score against 500 random probes	–	–	-0.71 PBM z-score against 500 random probes
B12	–	–	9.5 PBM z-score against 500 random probes	–	–	8.55 PBM z-score against 500 random probes	–	–
B13	–	–	8.51 PBM z-score against 500 random probes	–	3.42 PBM z-score against 500 random probes	7.83 PBM z-score against 500 random probes	–	–
B14	–	–	8.32 PBM z-score against 500 random probes	–	–	7.6 PBM z-score against 500 random probes	–	–
B15	–	–	8.57 PBM z-score against 500 random probes	–	–	7.27 PBM z-score against 500 random probes	–	–
B16	–	–	8.81 PBM z-score against 500 random probes	–	–	6.78 PBM z-score against 500 random probes	–	–
B17	–	–	8.39 PBM z-score against 500 random probes	–	–	6.25 PBM z-score against 500 random probes	–	–
B18	–	–	3.41 PBM z-score against 500 random probes	–	–	3.83 PBM z-score against 500 random probes	–	–
B19	–	–	3.12 PBM z-score against 500 random probes	–	–	3.3 PBM z-score against 500 random probes	–	–
B20	–	–	-0.34 PBM z-score against 500 random probes	–	–	-0.13 PBM z-score against 500 random probes	0.26 PBM z-score against 500 random probes	–
B21	–	–	-0.52 PBM z-score against 500 random probes	–	–	-0.46 PBM z-score against 500 random probes	–	–
B22	-0.22 PBM z-score against 500 random probes	–	-0.57 PBM z-score against 500 random probes	–	-0.5 PBM z-score against 500 random probes	-0.51 PBM z-score against 500 random probes	–	–
